The target of data set [1] is T1, human alpha-thrombin (Homo sapiens, UniProt P00734;P00734 328-363;364-622). Nature of the data set: SPR; 10 mM KCl; SPR (OpenSPR, immobilized thrombin): PBS, 0.005% Tween 20, 10 mM KCl, pH 7.4; TBA 1-16 uM (1-8 uM per Results), annealed 95 C 5 min then cooled to room temperat.
The target in data set [2] is T1, human alpha-thrombin. In words: SPR; 10 mM KCl; text of 3.2 gives 99 nM; SPR (OpenSPR, immobilized thrombin): PBS, 0.005% Tween 20, 10 mM KCl, pH 7.4; TBA 1-16 uM (1-8 uM per Results), annealed 95 C 5 min then cooled to room temperat.
In data set [3] the target is T1, human alpha-thrombin. In words: SPR; 10 mM KCl; text of 3.2 gives 97.5 nM; SPR (OpenSPR, immobilized thrombin): PBS, 0.005% Tween 20, 10 mM KCl, pH 7.4; TBA 1-16 uM (1-8 uM per Results), annealed 95 C 5 min then cooled to room temperat. A general note: SPR reads the build-up and loss of mass on a sensor chip optically.
In data set [4] the target is T1, human alpha-thrombin. In words: SPR; 10 mM KCl; text of 3.2 gives 99.8 nM; SPR (OpenSPR, immobilized thrombin): PBS, 0.005% Tween 20, 10 mM KCl, pH 7.4; TBA 1-16 uM (1-8 uM per Results), annealed 95 C 5 min then cooled to room temperat.

GGTTGGTGTGGTTGG (structured_DNA, 5' Trebler dendrimer (three arms with terminal hydroxyls)) [5TG] came in with a Kd with human alpha-thrombin [1] of 102 nM.

GGTTGGTGTGGTTGG (structured_DNA, T4: C5 NHS-carboxy-dT) [4NHT] came in with a Kd in the data set with human alpha-thrombin [2] of 102 nM.

Consider GGTTGGTGTGGTTGG (structured_DNA, 5' Long Trebler dendrimer (three arms with terminal hydroxyls)) [5LTG], for which the dissociation constant Kd with human alpha-thrombin [1] is 99.6 nM.

Turning to GGTTGGTGTGGTTGG (structured_DNA, T13: C5 NHS-carboxy-dT) [13NHT], binding in the data set with human alpha-thrombin [3] was put at a Kd of 99.7 nM.

In the data set with human alpha-thrombin [4], GGTTGGTGTGGTTGG (structured_DNA, T4 and T13: C5 NHS-carboxy-dT) [413NHT] gave an equilibrium dissociation constant (Kd) of 102 nM.

With GGTTGGTGTGGTTGG (structured_DNA) [TBA (native)], the affinity with human alpha-thrombin [1], expressed as Kd, was 99.8 nM.

As a reminder, the Kd is the constant that tells how readily two partners part at equilibrium.

(Values after article PMC8348300.)
